In IntAct's records for PubMed 29039417:

B1: Protein PTHB1 (Homo sapiens), Q3SYG4 (parent)
chain: MSLFKARDWWSTILGDKEEFDQGCLCLANVDNSGNGQDKIIVGSFMGYLRIFSPHPAKTGDGAQAEDLLLEVDLRDPVLQVEVGKFVSGTEMLHLAVLHSRKLCVYSVSGTLGNVEHGNQCQMKLMYEHNLQRTACNMTYGSFGGVKGRDLICIQSMDGMLMVFEQESYAFGRFLPGFLLPGPLAYSSRTDSFLTVSSCQQVESYKYQVLAFATDADKRQETEQQKLGSGKRLVVDWTLNIGEQALDICIVSFNQSASSVFVLGERNFFCLKDNGQIRFMKKLDWSPSCFLPYCSVSEGTINTLIGNHNNMLHIYQDVTLKWATQLPHIPVAVRVGCLHDLKGVIVTLSDDGHLQCSYLGTDPSLFQAPNVQSRELNYDELDVEMKELQKIIKDVNKSQGVWPMTEREDDLNVSVVVSPNFDSVSQATDVEVGTDLVPSVTVKVTLQNRVILQKAKLSVYVQPPLELTCDQFTFEFMTPDLTRTVSFSVYLKRSYTPSELEGNAVVSYSRPTDRNPDGIPRVIQCKFRLPLKLICLPGQPSKTASHKITIDTNKSPVSLLSLFPGFASQSDDDQVNVMGFHFLGGARITVLASKTSQRYRIQSEQFEDLWLITNELILRLQEYFEKQGVKDFACSFSGSIPLQEYFELIDHHFELRINGEKLEELLSERAVQFRAIQRRLLARFKDKTPAPLQHLDTLLDGTYKQVIALADAVEENQGNLFQSFTRLKSATHLVILLIALWQKLSADQVAILEAAFLPLQEDTQELGWEETVDAAISHLLKTCLSKSSKEQALNLNSQLNIPKDTSQLKKHITLLCDRLSKGGRLCLSTDAAAPQTMVMPGGCTTIPESDLEERSVEQDSTELFTNHRHLTAETPRPEVSPLQGVSE
partner: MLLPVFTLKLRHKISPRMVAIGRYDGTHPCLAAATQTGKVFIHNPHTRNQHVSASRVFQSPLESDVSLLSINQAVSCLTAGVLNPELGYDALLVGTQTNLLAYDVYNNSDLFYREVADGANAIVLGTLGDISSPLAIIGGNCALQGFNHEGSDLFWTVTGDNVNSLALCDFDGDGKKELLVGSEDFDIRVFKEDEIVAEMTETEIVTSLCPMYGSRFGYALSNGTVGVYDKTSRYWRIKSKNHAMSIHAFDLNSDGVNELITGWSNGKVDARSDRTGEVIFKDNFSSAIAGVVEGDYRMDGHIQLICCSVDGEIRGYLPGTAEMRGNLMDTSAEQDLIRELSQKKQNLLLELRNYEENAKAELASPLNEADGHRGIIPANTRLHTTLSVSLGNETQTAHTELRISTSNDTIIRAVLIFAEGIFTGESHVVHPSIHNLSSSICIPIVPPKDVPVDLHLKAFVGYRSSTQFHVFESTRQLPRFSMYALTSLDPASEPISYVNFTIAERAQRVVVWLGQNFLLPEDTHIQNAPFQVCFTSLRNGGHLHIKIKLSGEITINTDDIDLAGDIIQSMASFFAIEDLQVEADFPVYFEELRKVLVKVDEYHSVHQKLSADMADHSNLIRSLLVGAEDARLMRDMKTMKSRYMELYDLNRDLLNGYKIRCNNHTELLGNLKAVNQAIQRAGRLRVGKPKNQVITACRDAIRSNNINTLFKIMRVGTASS

Variants of: B1
Conditions: with bbs2_human BBS2, Q9BXC9

Variant | effect of a mutation on the interaction
L446A | with no effect
L446E | with no effect
L446K | with no effect
Q447A | with no effect
Q447E | with no effect
Q447K | with no effect
N448A | with no effect
N448E | with no effect
N448K | with no effect
R449A | with no effect
R449E | with no effect
R449K | with no effect
V450A | with no effect
V450E | with no effect
V450K | with no effect
I451A | with no effect
I451E | with no effect
I451K | with no effect
L452A | with no effect
L452E | with no effect
L452K | with no effect
Q453A | with no effect
Q453E | with no effect
Q453K | with no effect
K454A | with no effect

Variant | effect of a mutation on the interaction
K454E | with no effect
A455E | with no effect
A455K | with no effect
K456A | with no effect
K456E | with no effect
L457A | with no effect
L457E | with no effect
L457K | with no effect
S458A | with no effect
S458E | with no effect
S458K | with no effect
V459A | with no effect
V459E | with no effect
V459K | with no effect
Y460A | with no effect
Y460E | with no effect
Y460K | with no effect
V461A | with no effect
V461E | with no effect
V461K | with no effect
Q462A | with no effect
Q462E | with no effect
Q462K | with no effect
Q462T | disrupting interaction strength
Q462Y | disrupting interaction strength

Variant | effect of a mutation on the interaction
P463A | with no effect
P463E | with no effect
P463K | with no effect
P464A | with no effect
P464E | with no effect
P464K | with no effect
L465A | with no effect
L465E | with no effect
L465K | with no effect
E466A | with no effect
E466K | with no effect
L467A | with no effect
L467E | with no effect
L467K | with no effect
T468A | with no effect
T468E | with no effect
T468K | with no effect
C469A | with no effect
C469E | with no effect
C469K | with no effect
D470A | with no effect
D470E | with no effect
D470K | with no effect
D470N | disrupting interaction strength
Q471A | with no effect

Now from value to variant:

effect of a mutation on the interaction | Variant
with no effect | Q471E
with no effect | Q471K
with no effect | F472A
with no effect | F472E
with no effect | F472K
with no effect | T473A
with no effect | T473E
with no effect | T473K
with no effect | F474A
with no effect | F474E
with no effect | F474K
with no effect | E475A
with no effect | E475K
with no effect | F476A
with no effect | F476E
with no effect | F476K
with no effect | M477A
with no effect | M477E
with no effect | M477K
with no effect | T478A
with no effect | T478E
disrupting interaction strength | T478I

effect of a mutation on the interaction | Variant
with no effect | T478K
with no effect | P479A
with no effect | P479E
with no effect | P479K
disrupting interaction strength | P479L
with no effect | D480A
with no effect | D480E
with no effect | D480K
with no effect | L481A
with no effect | L481E
with no effect | L481K
with no effect | T482A
with no effect | T482E
with no effect | T482K
with no effect | R483A
with no effect | R483E
with no effect | R483K
with no effect | T484A
with no effect | T484E
with no effect | T484K
with no effect | V485A
with no effect | V485E

effect of a mutation on the interaction | Variant
with no effect | V485K
with no effect | S486A
with no effect | S486E
with no effect | S486K
disrupting interaction strength | S486N
disrupting interaction strength | S486R
with no effect | F487A
with no effect | F487E
with no effect | F487K
with no effect | S488A
with no effect | S488E
with no effect | S488K
with no effect | V489A
with no effect | V489E
with no effect | V489K
with no effect | Y490A
with no effect | Y490E
with no effect | Y490K
with no effect | L491A
with no effect | L491E
with no effect | L491K
with no effect | K492A

effect of a mutation on the interaction | Variant
with no effect | K492E
with no effect | R493A
with no effect | R493E
with no effect | R493K
with no effect | S494A
with no effect | S494E
with no effect | S494K
with no effect | Y495A
with no effect | Y495E
with no effect | Y495K
with no effect | T496A
with no effect | T496E
with no effect | T496K
with no effect | P497A
with no effect | P497E
with no effect | P497K
with no effect | S498A
with no effect | S498E
with no effect | S498K
disrupting interaction strength | S498L
with no effect | E499A
with no effect | E499K

effect of a mutation on the interaction | Variant
with no effect | L500A
with no effect | L500E
with no effect | L500K
with no effect | E501A
with no effect | E501K
with no effect | G502A
with no effect | G502E
with no effect | G502K
with no effect | N503A
with no effect | N503E
with no effect | N503K
with no effect | A504E
with no effect | A504K
with no effect | V505A
with no effect | V505E
with no effect | V505K
with no effect | V506A
with no effect | V506E
with no effect | V506K
with no effect | S507A
with no effect | S507E
